In article PMC4227782:
pKd: −log10 of the molar value.

Target: T1, MBNL1 (2-260) (UniProt Q9NR56)
T1 sequence: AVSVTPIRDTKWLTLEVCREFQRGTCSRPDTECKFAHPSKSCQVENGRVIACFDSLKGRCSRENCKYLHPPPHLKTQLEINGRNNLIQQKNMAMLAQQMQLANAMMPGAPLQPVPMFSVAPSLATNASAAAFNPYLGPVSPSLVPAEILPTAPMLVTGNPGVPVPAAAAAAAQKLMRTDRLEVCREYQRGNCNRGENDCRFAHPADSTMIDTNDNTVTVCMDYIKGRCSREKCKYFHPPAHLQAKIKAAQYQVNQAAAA
Assay: EMSA
Settings: 5 mM Mg2+, 0.1 mg/ml heparin, 175 mM NaCl, 20 mM Tris pH 7.5, 1 mM BME, 10% glycerol, 5 mM MgCl2, 0.1 mg/ml heparin, 2 mg/ml BSA, 0.02% xylene cyanol, 0.05% bromophenol blue, 20 min at room …

Sequence CUGCUGCUGCUG [2Ψ(CUG)4] has a pKd (2 pseudouridines replacing U, positions only in Fig 1B) of 5.22.

CUGCUGCUGCUG [2-2'Ome(CUG)4] showed a pKd (2 2'-O-methyl, positions only in Fig 1B) of 6.05.

CUGCUGCUGCUG [4-2'Ome(CUG)4] showed a pKd (4 2'-O-methyl, positions only in Fig 1B) of 6.00.

With CUGCUGCUGCUG [4Ψ(CUG)4] the pKd (Kd immeasurable, 4 pseudouridines replacing U) was < 5.30.

With CUGCUGCUGCUG [(CUG)4] the pKd was 6.52.

With CUGCUGCUGCUG [1Ψ(CUG)4] the pKd (1 pseudouridine replacing U, position only in Fig 1B) was 6.00.

In the case of CUGCUGCUGCUG [1-2'Ome(CUG)4], the pKd (1 2'-O-methyl, position only in Fig 1B) was 6.19.
